Test results taken from patent publication US9981059B2, “Sugar chain-polypeptide complex” (Glytech, Inc., priority 2013, dated 2018).

Tests used:
[1] = Steel ball loading test of hydrogel property; format: physicochemical; set-up: key to position of the steel ball / hydrogel state: The state of the steel ball staying near the hydrogel surface was set as ◯; sinking after loading and staying internally was set as Δ; sinking to the bottom of the Durham's tube was set as X; * was added to those where the hydrogel was not uniform and clouding or insoluble matter (precipitate) was observed
Method: Ten mg of the sugar chain-polypeptide complex or 10 mg of the control polypeptide were dissolved in 500 μL of ultrapure water to prepare 2 wt. % polypeptide solutions. […] In doing so, citrate-phosphate buffer (pH 2.0 and 3.5), phosphate buffer (pH 7.4), and phosphate-sodium hydroxide buffer (pH 11.5) were employed as the buffer. The surface of the hydrogel inside the Durham's tube was horizontally placed, left still for 20 minutes under room temperature conditions, and a steel ball (diameter 1.56 mm, weight 16 mg, FUNABE SEIKO Co., Ltd.) was loaded on the hydrogel. After 10 minutes, the position of the steel ball was observed by visual confirmation.
The position of the steel ball inside the Durham's tube was evaluated in 3 grades. The state of the steel ball staying near the hydrogel surface was set as ◯, sinking after loading and staying internally was set as Δ, and sinking to the bottom of the Durham's tube was set as X. In addition, * was added to those where the hydrogel was not uniform and clouding or insoluble matter (precipitate) was observed. A hydrogel where the steel ball stays around the surface (◯) and no clouding or insoluble matter is seen (no *) was thought to be a gel that is transparent and uniform.

[2] = target: T1, Bovine Serum Albumin (BSA) (Bos taurus, UniProt P02769); experiment: Controlled release capability for acidic protein encapsulated in hydrogel
T1 construct: purchased Life Technologies A13100
Method: A phosphate buffer (pH 7.4) was employed as the buffer. Moreover, Bovine Serum Albumin (BSA) fluorescently labeled with Alexa Fluor™ 488 (A13100, Life Technologies) was employed as the acidic protein to be encapsulated into the hydrogel.
The components were added to the tube so that the buffer salt concentration is 0.15 M, the BSA concentration is 5 μM, and the polypeptide concentration is 0.25-1 wt. %, and mixed by vortex. The mixture was added to the Multiwell Insert System (351130, BD) at 50 μL each, and left overnight in an incubator at 37 degrees (CO2 incubator for cell culture, MCO-18AIC, SANYO) with shading to prepare BSA-encapsulating hydrogels. In the incubator at 37 degrees, the Insert System was immersed in a 96-well flat bottom plate (353928, BD) with a buffer identical to the hydrogel added at 225 μL each, and the plate was shaken with a plate shaker (MICRO PLATE MIXER NS-P, AS ONE Corporation, rotation speed: ⅕ of scale) to initiate the test (0 hours). Subsequently, the fluorescence amount that leaked out over time on the flat bottom plate side was measured with a fluorescence plate reader (SpectraMax M3, Molecular Devices, LLC.). A standard curve was created with the identical fluorescently-labeled BSA, and the protein concentration was calculated from the amount of fluorescent dye that leaked out. A solution of only BSA added to the buffer (W/O SAP) was employed as the control.

[3] = Circular dichroism (CD) measurement of β sheet structure; format: physicochemical
Method: In general, the characteristics of the wavelengths observed when a substance has a β sheet structure are a positive absorption at around 197 nm and a negative absorption at around 216 nm. For this reason, focus was placed on the size of these wavelengths in the present invention, and the influence of pH on the β sheet structure was investigated.
One to ten millimolars of aqueous sodium hydroxide solutions were added to each of these aqueous polypeptide solutions to adjust the pH, and 100 mM aqueous polypeptide solutions at having pH 2 or pH 7 were created. These aqueous solutions were transferred to quartz cells having an optical path length of 0.1 cm. The CD spectrum was then measured with a spectrum polarimeter (J-805, Jasco) at wavelengths of 185-260 nm for ellipticity (millidegree). The mean residue ellipticity θ was calculated with the following formula: [θ]=(θobs/10·l·c)/r
wherein θobs represents the ellipticity measured in millidegree, l represents the cell length (cm), c represents the concentration (M), and r represents the number of amino acid residues.

[4] = Kinetic viscosity measurement with rheometer; format: physicochemical; conditions: 0.5 wt. % hydrogel, pH 7, 25 degrees
Method: A rheometer (MCR302, Anton Paar GmbH) equipped with a stainless steel parallel plate having a diameter of 25 mm with 0.3 mm gap height was employed for kinetic viscosity measurement. […] Five millimolars of aqueous sodium hydroxide solution was added to these aqueous polypeptide solutions in order to adjust the pH to prepare 0.5 wt. % hydrogels at pH 7. Subsequently, these hydrogels were quickly transferred to a rheometer set at 25 degrees, and phase angle (tan δ) was monitored over a time course. (frequency=1 Hz, distortion=10%)

[5] = Steel ball loading test of hydrogels comprising rat blood plasma (utility as hemostatic matrix); format: physicochemical; conditions: polypeptide 0.5 wt. %
Method: Aqueous polypeptide solutions were prepared with a method similar to Example 1. Blood was collected from 7 weeks-old Crlj:WI rats with heparin sodium injection (Ajinomoto), and blood plasma was obtained from the supernatant after centrifugation treatment. The aqueous polypeptide solution, blood plasma, and PBS were added to a Durham's tube, and hydrogels was prepared so that the plasma concentration was 5-50% and the polypeptide concentration was 0.5 wt. %. Subsequently, these were left for 20 minutes at room temperature condition, and then steel ball loading tests were carried out with a method similar to Example 1.

[6] = hydrogel concentration 0.5 wt. %, pH 3.5
[7] = hydrogel concentration 0.5 wt. %, pH 7.4

T1 sequence (P02769 25-607): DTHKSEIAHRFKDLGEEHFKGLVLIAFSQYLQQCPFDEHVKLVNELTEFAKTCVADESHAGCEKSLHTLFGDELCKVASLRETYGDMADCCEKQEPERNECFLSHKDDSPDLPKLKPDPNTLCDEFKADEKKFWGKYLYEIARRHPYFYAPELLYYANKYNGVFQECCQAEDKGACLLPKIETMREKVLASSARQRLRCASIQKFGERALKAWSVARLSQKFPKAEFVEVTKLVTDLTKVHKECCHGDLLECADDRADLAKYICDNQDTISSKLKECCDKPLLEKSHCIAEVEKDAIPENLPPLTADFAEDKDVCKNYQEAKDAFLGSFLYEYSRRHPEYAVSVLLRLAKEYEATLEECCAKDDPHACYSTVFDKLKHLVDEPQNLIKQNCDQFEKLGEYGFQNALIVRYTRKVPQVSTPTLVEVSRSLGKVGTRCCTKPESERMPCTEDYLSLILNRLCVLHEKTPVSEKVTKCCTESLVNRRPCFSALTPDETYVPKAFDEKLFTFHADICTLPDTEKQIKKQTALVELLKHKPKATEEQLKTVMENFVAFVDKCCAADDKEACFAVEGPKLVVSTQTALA

Substance | position of the steel ball / hydrogel state [1, 6] | position of the steel ball / hydrogel state [1, 7] | hydrogel formed (in words) ([1]; 0.5 wt. %, pH 3.5 and pH 7.4) | also measured
2C(Maltose)-(RADA)4 [Compound 8] | ◯* | X* | – | hydrogel formed (in words) ([1]; Example 4, 0.5 wt. %, pH 7.4): did not form hydrogels
2C(Maltotriose)-(RADA)4 [Compound 9] | ◯ | ◯ | transparent and uniform hydrogels | –
3C(Maltose)-(RADA)4 [Compound 12] | ◯ | ◯ | transparent and uniform hydrogels | –
(RADA)4 [Compound 1] | X* | X* | – | controlled release capability (BSA leakage speed vs solution without any polypeptide) ([2]; pH 7.4, polypeptide 0.5 wt. % or less): does not possess controlled release capability; leakage of BSA encapsulated in the hydrogel ([2]; phosphate buffer pH 7.4, 37 degrees, polypeptide 0.25-1 wt. %): leaked out in a short time; β sheet structure formation ([3]; neutral pH): formed almost no β sheet structure; molar ellipticity (CD) ([3]; pH 2, 100 mM aqueous polypeptide solution): high molar ellipticity; molar ellipticity (CD) ([3]; pH 7, 100 mM aqueous polypeptide solution): significantly reduced; rigidity of hydrogel formed [4]: a fragile hydrogel is formed, or an ununiform hydrogel that is only partially rigid is formed; phase angle (tan δ) over a time course ([4]; frequency 1 Hz, distortion 10%): large phase angle; position of the steel ball / hydrogel state ([5]; plasma concentration 5%): X*; hydrogel formed in presence of blood plasma (in words) ([5]; plasma concentration 5-50%): clouded and insoluble matters were observed at all plasma concentrations; position of the steel ball / hydrogel state ([5]; plasma concentration 10%): X*; position of the steel ball / hydrogel state ([5]; plasma concentration 25%): Δ*; position of the steel ball / hydrogel state ([5]; plasma concentration 50%): Δ*; hydrogel formed (in words) ([1]; 1 wt. %, pH 2.0): transparent and uniform hydrogel; hydrogel formed (in words) ([1]; 1 wt. %, pH 3.5 or higher): ununiform hydrogel with clouding; position of the steel ball / hydrogel state ([1]; peptide concentration 1 wt. %, pH 2.0): ◯; position of the steel ball / hydrogel state ([1]; peptide concentration 1 wt. %, pH 3.5): Δ*; position of the steel ball / hydrogel state ([1]; peptide concentration 1 wt. %, pH 7.4): X*; position of the steel ball / hydrogel state ([1]; peptide concentration 1 wt. %, pH 11.5): X*
(RATARAEA)2 (RATARAEARATARAEA) [Compound 16] | X* | X* | ununiform and clouded hydro gel | –
C(DiGlcNAc)-(RADA)4 [Compound 2] | – | – | – | controlled release capability (BSA leakage speed vs solution without any polypeptide) ([2]; pH 7.4, concentration as low as 0.25 wt. %): showing controlled release capability
C(Maltose)-(RADA)4-C(Maltose) [Compound 10] | ◯* | X* | – | hydrogel formed (in words) ([1]; Example 4, 0.5 wt. %, pH 7.4): did not form hydrogels
C(Maltotriose)-(RADA)4-C(Maltotriose) [Compound 11] | ◯ | ◯ | transparent and uniform hydrogels | –
C(PEG2000)-(RADA)4 [Compound 14] | X | X | uniform hydrogels were not formed | –
